The text below walks through data of US20260250425A1 (UNIVERSITY OF CHICAGO, published 2026).

The target in assay [1] is T1, mouse C1q (mouse, UniProt P98086 23-245; P14106 26-253; Q02105 30-246).
T1 construct: Plates were coated with BALB/c mouse serum as the source of mouse C1q; also called mc1q
As to the kind of experiment: ELISA, plate coated with BALB/c mouse serum (mouse C1q).

Assay [2] deals with T2, human FcγRIIIA (F158) (human, UniProt P08637 17-208).
T2 construct: Recombinant His-tagged protein
The assay can be described thus: ELISA, His-tagged FcγR captured by anti-His antibody.

Assay [3] addresses T3, mouse FcγRIV (mouse, UniProt A0A0B4J1G0 21-203).
T3 construct: Recombinant His-tagged protein
T3 sequence: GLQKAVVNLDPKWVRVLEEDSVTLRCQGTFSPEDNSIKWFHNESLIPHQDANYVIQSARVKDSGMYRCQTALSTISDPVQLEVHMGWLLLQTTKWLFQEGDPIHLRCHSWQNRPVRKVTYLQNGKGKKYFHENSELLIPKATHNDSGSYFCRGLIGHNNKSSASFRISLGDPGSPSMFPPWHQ
The assay is described as above.

Assay [4] concerns the target T4, human FcγRIIA (H131) (human, UniProt P12318 34-218, limits assumed).
T4 construct: Recombinant His-tagged protein
T4 sequence (looked up): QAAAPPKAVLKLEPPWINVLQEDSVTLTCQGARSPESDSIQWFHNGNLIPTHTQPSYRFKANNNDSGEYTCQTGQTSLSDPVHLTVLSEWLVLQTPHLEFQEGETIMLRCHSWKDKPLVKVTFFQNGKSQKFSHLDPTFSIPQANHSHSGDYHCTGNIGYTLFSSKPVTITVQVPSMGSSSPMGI
Described as above.

The target in assay [5] is T5, human FcγRIIIA (V158) (human, UniProt P08637 17-208).
T5 construct: Recombinant His-tagged protein
The assay is described as above.

Assay [6] deals with T6, mouse FcγRIII (mouse, UniProt P08508 31-215).
T6 construct: Recombinant His-tagged protein
T6 sequence (looked up): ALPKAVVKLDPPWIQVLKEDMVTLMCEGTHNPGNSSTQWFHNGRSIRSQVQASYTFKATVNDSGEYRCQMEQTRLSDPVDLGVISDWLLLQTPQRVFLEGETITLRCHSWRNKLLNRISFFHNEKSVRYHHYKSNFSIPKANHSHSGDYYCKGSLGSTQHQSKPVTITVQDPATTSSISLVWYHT
The assay is described as above.

The target of assay [7] is T7, mouse FcγRI (mouse, UniProt P26151 25-297).
T7 construct: Recombinant His-tagged protein
T7 sequence (looked up): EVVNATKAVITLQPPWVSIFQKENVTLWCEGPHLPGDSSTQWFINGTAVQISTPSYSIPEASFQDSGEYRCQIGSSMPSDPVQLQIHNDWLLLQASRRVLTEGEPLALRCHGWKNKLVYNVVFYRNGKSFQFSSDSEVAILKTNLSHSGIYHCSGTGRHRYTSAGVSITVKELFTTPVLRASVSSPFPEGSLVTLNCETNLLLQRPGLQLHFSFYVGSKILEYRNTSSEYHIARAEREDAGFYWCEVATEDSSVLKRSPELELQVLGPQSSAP
The description is as above.

Assay [8] addresses T8, mouse FcγRIIB (mouse, UniProt P08101 30-210, limits assumed).
T8 construct: Recombinant His-tagged protein
T8 sequence (looked up): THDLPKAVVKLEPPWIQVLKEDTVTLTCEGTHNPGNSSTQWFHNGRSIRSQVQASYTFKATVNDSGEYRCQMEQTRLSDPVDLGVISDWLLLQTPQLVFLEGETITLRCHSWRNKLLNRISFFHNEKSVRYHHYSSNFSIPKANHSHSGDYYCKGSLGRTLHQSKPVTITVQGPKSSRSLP
The description is as above.

In assay [9] the target is T9, human FcγRIA (human, UniProt P12314 16-288, limits assumed).
T9 construct: Recombinant His-tagged protein
The description is as above.

Assay [10] deals with T10, human FcγRIIA (R131) (human, UniProt P12318 34-218, limits assumed).
T10 construct: Recombinant His-tagged protein
T10 sequence (looked up): T4 sequence (looked up) with H134R
The description is as above.

The target of assay [11] is T11, human FcγRIIB (human, UniProt P31994 43-217, limits assumed).
T11 construct: Recombinant His-tagged protein; also called FcγRIIB (human)
T11 sequence (looked up): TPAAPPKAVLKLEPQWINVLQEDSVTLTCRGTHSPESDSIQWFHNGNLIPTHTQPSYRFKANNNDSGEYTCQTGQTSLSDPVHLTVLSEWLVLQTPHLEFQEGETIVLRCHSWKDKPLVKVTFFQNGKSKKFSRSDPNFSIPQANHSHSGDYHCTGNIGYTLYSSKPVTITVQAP
The description is as above.

The target in assay [12] is T1, mouse C1q. The assay can be described thus: ELISA, plate coated with BALB/c mouse serum (mouse C1q). The source holds these as a separate data set. Background: In an ELISA, binding on a coated surface is turned into a signal by an enzyme label.
Assay [13] concerns the target T12, human C1q (human, UniProt P02745 23-245; P02746 28-253; P02747 29-245).
T12 construct: Purified human C1q (CompTech); also called hc1q; hC1q
As to the kind of experiment: ELISA, human C1q-coated plate.

Assay [14] concerns the target T12, human C1q. The assay can be described thus: ELISA, human C1q-coated plate. This is another data set of the same source.

Residue numbers refer to the chain shown, from its start. Names and notes keep the numbering of the source. Like-named read-outs stand apart in the source and are kept apart here.

T1 sequence (P98086 23-245 limits assumed, chain 1 of 3): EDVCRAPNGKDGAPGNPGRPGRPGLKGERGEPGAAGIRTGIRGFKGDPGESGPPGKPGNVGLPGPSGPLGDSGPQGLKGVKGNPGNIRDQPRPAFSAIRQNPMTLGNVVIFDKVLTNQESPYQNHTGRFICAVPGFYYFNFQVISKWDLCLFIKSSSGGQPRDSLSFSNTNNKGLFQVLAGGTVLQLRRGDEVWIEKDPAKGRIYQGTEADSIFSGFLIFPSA
T1 sequence (P14106 26-253 limits assumed, chain 2 of 3): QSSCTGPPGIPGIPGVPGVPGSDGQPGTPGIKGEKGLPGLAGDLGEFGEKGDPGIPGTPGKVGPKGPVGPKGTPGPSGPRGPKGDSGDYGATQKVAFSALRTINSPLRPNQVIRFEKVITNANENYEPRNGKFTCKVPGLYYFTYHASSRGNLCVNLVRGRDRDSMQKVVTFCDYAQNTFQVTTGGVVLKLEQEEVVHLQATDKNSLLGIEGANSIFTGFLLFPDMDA
T1 sequence (Q02105 30-246 limits assumed, chain 3 of 3): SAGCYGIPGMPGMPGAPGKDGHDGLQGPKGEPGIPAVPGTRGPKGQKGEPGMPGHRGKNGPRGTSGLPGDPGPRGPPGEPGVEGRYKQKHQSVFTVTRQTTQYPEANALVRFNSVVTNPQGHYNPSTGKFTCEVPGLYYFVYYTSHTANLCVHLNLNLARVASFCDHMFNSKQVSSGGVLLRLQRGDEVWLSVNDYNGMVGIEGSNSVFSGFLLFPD
T12 sequence (P02745 23-245 limits assumed, chain 1 of 3): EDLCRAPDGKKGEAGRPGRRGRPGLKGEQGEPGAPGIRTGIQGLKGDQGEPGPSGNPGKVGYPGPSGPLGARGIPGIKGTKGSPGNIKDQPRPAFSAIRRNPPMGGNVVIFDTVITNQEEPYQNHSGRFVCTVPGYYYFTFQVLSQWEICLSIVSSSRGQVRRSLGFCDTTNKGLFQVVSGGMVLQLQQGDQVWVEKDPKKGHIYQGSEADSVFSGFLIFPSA
T12 sequence (P02746 28-253 limits assumed, chain 2 of 3): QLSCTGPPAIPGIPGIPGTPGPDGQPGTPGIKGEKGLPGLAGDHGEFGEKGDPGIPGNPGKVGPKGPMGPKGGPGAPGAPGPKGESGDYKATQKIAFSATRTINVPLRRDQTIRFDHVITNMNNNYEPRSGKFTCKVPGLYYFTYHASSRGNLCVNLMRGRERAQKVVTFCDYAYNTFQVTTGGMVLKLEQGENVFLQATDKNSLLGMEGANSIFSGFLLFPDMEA
T12 sequence (P02747 29-245 limits assumed, chain 3 of 3): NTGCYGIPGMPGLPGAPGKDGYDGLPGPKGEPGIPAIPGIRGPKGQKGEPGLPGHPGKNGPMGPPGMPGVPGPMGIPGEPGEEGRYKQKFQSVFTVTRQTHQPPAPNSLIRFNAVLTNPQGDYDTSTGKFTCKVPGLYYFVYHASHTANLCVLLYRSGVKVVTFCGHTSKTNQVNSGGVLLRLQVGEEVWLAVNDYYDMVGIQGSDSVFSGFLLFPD
T9 sequence (P12314 16-288 limits assumed): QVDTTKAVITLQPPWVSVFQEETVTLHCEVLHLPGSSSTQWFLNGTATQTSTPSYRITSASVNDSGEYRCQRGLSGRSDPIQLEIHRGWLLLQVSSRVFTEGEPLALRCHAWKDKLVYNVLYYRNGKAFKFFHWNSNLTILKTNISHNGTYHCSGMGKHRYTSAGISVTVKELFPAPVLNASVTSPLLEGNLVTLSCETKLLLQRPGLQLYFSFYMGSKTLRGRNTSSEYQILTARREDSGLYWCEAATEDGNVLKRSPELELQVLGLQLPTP
T5 sequence (P08637 17-208 F176V limits assumed): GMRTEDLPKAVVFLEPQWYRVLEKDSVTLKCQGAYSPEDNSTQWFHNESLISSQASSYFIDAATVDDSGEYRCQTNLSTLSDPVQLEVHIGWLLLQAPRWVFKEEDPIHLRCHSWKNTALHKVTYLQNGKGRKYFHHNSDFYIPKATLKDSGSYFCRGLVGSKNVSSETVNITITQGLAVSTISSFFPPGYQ
T2 sequence (P08637 17-208 limits assumed): as the sequence (P08637 17-208 F176V limits assumed) above, with V160F counted along it

B1: 3F6-hIgG1HEK (antibody)
heavy: not shown
light: DIVLTQSPDSLAVSLGERATINCRASESVEYSGASLMQWYQHKPGQPPKLLIYAASNRESGVPDRFSGSGSGTDFTLTISPVQAEDVAMYFCQQSRKVPSTFGGGTKLEIKRTVAAPSVFIFPPSDEQLKSGTASVVCLLNNFYPREAKVQWKVDNALQSGNSQESVTEQDSKDSTYSLSSTLTLSKADYEKHKVYACEVTHQGLSSPVTKSFNRGEC
modifications: Asn297 N-glycans as made by HEK-293F cells (more G1F, G2F and sialic acid than the CHO product)
notes: also called 3F6-hIgG1HEK WT; 3F6-IgG1
In the case of B1, the Ka in [1] is 6.08e+07 M⁻¹; in [2] it was 1.97e+06 M⁻¹; in assay [3] it was 1.35e+08 M⁻¹; in [4], 1.13e+06 M⁻¹; in [5], 2.31e+07 M⁻¹; in [6], 1.69e+06 M⁻¹. Also, the Ka in assay [7] stood at 1.84e+08 M⁻¹; in assay [8] it was 1.61e+06 M⁻¹; in assay [9], 7.88e+08 M⁻¹; in [10], 1.53e+06 M⁻¹; in [11], 925000 M⁻¹; in assay [12], 6.08e+07 M⁻¹. Moreover, the Ka in assay [13] and in [14] was 1.87e+07 M⁻¹ in each case.

B2: 3F6-hIgG1CHO (antibody)
heavy: not shown
light: B1 light
modifications: Asn297 N-glycans as made by CHO-DG44 cells (mainly G0F, less G1F and G2F)
notes: Humanized 3F6 human IgG1 produced in CHO-DG44 cells; also called 3F6-hIgG1CHO WT; CHO-produced antibody
With B2, the Ka in assay [1] was determined as 8.87e+06 M⁻¹; in assay [2], 3.09e+06 M⁻¹; in [3] it was 1.15e+08 M⁻¹; in [4] it was 1.75e+06 M⁻¹; in assay [5], 2.75e+07 M⁻¹; in assay [6], 1.49e+06 M⁻¹. Further, the Ka in [7] is 1.77e+08 M⁻¹; in [8], 1.53e+06 M⁻¹; in assay [9], 7.66e+08 M⁻¹; in assay [10], 2.36e+06 M⁻¹; in assay [11], 1.65e+06 M⁻¹; in assay [12], 8.87e+06 M⁻¹. Also, the Ka in assay [13] and in assay [14] was 4.91e+06 M⁻¹ in each case.
